From article PMC5379935, “Crystal structure and RNA-binding properties of an Hfq homolog from the deep-branching Aquificae: conservation of the lateral RNA-binding mode” (Acta Crystallographica. Section D, Structural Biology, 2016) come the findings set out here.

Data set [1] concerns the molecule itself. The data set is described as follows: SEC-MALS; Superdex 200 Increase 10/300 GL, 50 mM Tris pH 8.0, 200 mM NaCl; Aae Hfq alone; monodisperse peak.
Data set [2] concerns the molecule itself. The data set is described as follows: cross-linking; formaldehyde, indirect (vapor-diffusion) method, 0.6 mg/ml Hfq in 25 mM HEPES pH 8.0, 500 mM NaCl, 310 K, 40 min; read out by MALDI-TOF MS.
Data set [3] addresses T1, Aae Hfq (Aquifex aeolicus, UniProt O66512 1-80).
T1 sequence: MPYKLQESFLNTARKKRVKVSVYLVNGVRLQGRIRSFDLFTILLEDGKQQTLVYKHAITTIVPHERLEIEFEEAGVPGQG
The data set is described as follows: fluorescence polarization; no significant binding detected; FP: 50 mM Tris pH 8.0, 500 mM NaCl, 5 nM FAM-RNA, +/- 10 mM MgCl2, 45 min, room temperature. The conditions noted are these: protein: recombinant; tags: 6xHis removed by thrombin; residual N-terminal G-2 S-1 H0; chain copies: 6; label: FAM; single strand. In general terms: Fluorescence polarisation rises when a labelled molecule tumbles more slowly, as on binding a larger partner.

The target of data set [4] is T1, Aae Hfq. The data set is described as follows: fluorescence polarization; 10 mM Mg2+; per hexamer; 4-parameter fit, Hill 2.4; FP: 50 mM Tris pH 8.0, 500 mM NaCl, 5 nM FAM-RNA, +/- 10 mM MgCl2, 45 min, room temperature. As to conditions: protein: recombinant; tags: 6xHis removed by thrombin; residual N-terminal G-2 S-1 H0; chain copies: 6; label: 5'-FAM; single strand.

Data set [5] deals with T1, Aae Hfq. The data set is described as follows: fluorescence polarization; no Mg2+; per hexamer; 4-parameter fit, Hill 2.2; FP: 50 mM Tris pH 8.0, 500 mM NaCl, 5 nM FAM-RNA, +/- 10 mM MgCl2, 45 min, room temperature. The conditions noted are these: protein: recombinant; tags: 6xHis removed by thrombin; residual N-terminal G-2 S-1 H0; chain copies: 6; label: 5'-FAM; single strand.

Data set [6] deals with T1, Aae Hfq. The data set is described as follows: fluorescence polarization; 10 mM Mg2+; per hexamer; 4-parameter fit, Hill 1.7; FP: 50 mM Tris pH 8.0, 500 mM NaCl, 5 nM FAM-RNA, +/- 10 mM MgCl2, 45 min, room temperature. As to conditions: protein: recombinant; tags: 6xHis removed by thrombin; residual N-terminal G-2 S-1 H0; chain copies: 6; label: 5'-FAM; single strand.
Data set [7] concerns the target T1, Aae Hfq. The data set is described as follows: fluorescence polarization; no Mg2+; per hexamer; 4-parameter fit, Hill 1.3; FP: 50 mM Tris pH 8.0, 500 mM NaCl, 5 nM FAM-RNA, +/- 10 mM MgCl2, 45 min, room temperature. As to conditions: protein: recombinant; tags: 6xHis removed by thrombin; residual N-terminal G-2 S-1 H0; chain copies: 6; label: 5'-FAM; single strand.

B1: Aquifex aeolicus Hfq (working construct after proteolytic removal of the 6xHis tag, 83 amino acids) (natural protein)
chain: GSHMPYKLQESFLNTARKKRVKVSVYLVNGVRLQGRIRSFDLFTILLEDGKQQTLVYKHAITTIVPHERLEIEFEEAGVPGQG
notes: three plasmid-derived residues (G-2, S-1, H0) that remain at the N-terminus after thrombin cleavage of the 6xHis tag; 83 residues, 9482.9 Da after tag removal (cleaved at G-2); Hexameric ring; two rings stack into a dodecamer in the P1 crystal, on cross-linking, and in solution with A18 RNA; also called Aae Hfq; (Hfq)6; not shown: His6, N-terminal, cleaved
Take B1: the results for the “stoichiometry N” value in data set [1] and in data set [2] were 6 and 12, respectively.
On to CCCCCC (ssRNA) [FAM-C6], for which, in the data set with Aae Hfq [3], the binding result is “no binding”.
As to AAAAAAAAAAAAAAAAAA (ssRNA) [FAM-A18], the Kd came out at 9.5 nM with Aae Hfq [4] and 17.4 nM with Aae Hfq [5].
Turning to AAAAAA (ssRNA) [FAM-A6], the binding result with Aae Hfq [3] is reported as “no binding”.
Regarding UUUUUU (ssRNA) [FAM-U6], the figures for the Kd with Aae Hfq [6] and in the data set with Aae Hfq [7] were 2.1 nM and 21.3 nM, respectively.

Broadly, the stoichiometry N is the number of molecules, sites or subunits per partner or assembly. The term Kd denotes the constant that tells how readily two partners part at equilibrium.
